Test results published in patent US20250064934A1 (CENTURY THERAPEUTICS, published 2025).
Positions count from the first letter of the chain named.

T1: CD22 expressed on the cell surface (Raji, Daudi, CHO-CD22 and other CD22+ cells) (UniProt P20273 20-847, limits assumed)
T1 construct: whole, on cells; also called CD22 positive Raji cells; CD22+ Raji cells
T1 sequence (looked up): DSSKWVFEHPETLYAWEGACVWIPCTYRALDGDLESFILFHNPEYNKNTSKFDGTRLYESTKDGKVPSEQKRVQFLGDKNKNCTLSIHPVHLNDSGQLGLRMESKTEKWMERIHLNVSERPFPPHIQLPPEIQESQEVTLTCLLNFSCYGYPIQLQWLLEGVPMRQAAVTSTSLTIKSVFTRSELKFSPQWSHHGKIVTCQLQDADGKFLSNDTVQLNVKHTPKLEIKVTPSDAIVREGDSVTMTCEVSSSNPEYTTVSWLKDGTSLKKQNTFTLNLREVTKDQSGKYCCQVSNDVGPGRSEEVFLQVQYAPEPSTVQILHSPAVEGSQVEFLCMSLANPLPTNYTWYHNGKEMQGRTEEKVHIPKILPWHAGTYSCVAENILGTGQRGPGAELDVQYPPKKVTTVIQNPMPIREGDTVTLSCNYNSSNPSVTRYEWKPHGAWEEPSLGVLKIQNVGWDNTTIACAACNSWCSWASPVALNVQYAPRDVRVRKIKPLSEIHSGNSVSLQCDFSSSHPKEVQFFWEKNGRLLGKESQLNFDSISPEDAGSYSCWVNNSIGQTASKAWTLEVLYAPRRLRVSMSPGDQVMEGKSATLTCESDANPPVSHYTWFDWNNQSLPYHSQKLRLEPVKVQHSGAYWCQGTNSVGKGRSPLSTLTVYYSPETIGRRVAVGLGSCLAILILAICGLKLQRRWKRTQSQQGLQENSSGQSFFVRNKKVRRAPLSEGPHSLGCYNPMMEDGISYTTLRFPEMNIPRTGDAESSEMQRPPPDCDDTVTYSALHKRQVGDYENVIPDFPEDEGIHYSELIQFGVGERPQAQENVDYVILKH

T2: monomeric CD22 (Acro Biosystems) (UniProt P20273 20-687)
T2 construct: Bought protein; also called CD22 antigen; soluble CD22 protein
T2 sequence (looked up): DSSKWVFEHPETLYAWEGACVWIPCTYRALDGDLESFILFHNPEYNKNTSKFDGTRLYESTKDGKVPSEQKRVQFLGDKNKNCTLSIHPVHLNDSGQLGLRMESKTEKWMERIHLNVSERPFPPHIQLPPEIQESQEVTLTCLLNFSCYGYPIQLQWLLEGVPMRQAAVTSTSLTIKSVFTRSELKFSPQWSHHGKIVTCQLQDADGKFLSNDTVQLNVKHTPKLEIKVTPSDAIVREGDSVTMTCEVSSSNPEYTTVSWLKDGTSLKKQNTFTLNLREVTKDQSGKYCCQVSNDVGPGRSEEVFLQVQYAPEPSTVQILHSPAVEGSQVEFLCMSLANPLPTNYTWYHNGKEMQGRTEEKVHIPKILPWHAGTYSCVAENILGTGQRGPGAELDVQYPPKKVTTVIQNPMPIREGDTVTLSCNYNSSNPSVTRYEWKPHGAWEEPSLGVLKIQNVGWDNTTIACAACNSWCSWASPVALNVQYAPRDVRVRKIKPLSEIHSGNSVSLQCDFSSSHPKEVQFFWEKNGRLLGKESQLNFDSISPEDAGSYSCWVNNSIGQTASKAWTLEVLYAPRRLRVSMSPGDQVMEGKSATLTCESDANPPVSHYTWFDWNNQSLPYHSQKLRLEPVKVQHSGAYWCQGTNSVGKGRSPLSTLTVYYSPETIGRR

B1: tandem VHH CAR D04_AM_D11-E04 (P1730) (bispecific antibody, part only; not given: which CAR backbone was used, part only)
chain, part: QVQLVESGGGLVQAGGSLRLSCAASGSEFTGYPMGWFRQAPGKEREFVAGSVGIGGSTNYADSVKGRFTISRDNAKNTVYLQMNSLKPEDTAVYYCAADKDYYKPYSRYRTAIRYDTWGQGTQVTVSSGSTSGSGKPGSGEGSTKGEVQLLESGGGLVQPGGSLRLSCAASGFTSSSYVMGWYRQAPGKEREFVSSISTGGDAYYADSVKGRFTISRDNSKNTLYLQMNSLRAEDTAVYYCAADVWYYHGGAYDYWGQGTQVTVSS
B2: tandem VHH CAR E04-D04_AM_D11 (P1738) (bispecific antibody, part only; not given: which CAR backbone was used, part only)
chain, part: EVQLLESGGGLVQPGGSLRLSCAASGFTSSSYVMGWYRQAPGKEREFVSSISTGGDAYYADSVKGRFTISRDNSKNTLYLQMNSLRAEDTAVYYCAADVWYYHGGAYDYWGQGTQVTVSSGSTSGSGKPGSGEGSTKGQVQLVESGGGLVQAGGSLRLSCAASGSEFTGYPMGWFRQAPGKEREFVAGSVGIGGSTNYADSVKGRFTISRDNAKNTVYLQMNSLKPEDTAVYYCAADKDYYKPYSRYRTAIRYDTWGQGTQVTVSS
B3: PROT265 (D04) VHH-Fc fusion protein (Fc fusion)
chain: QVQLVESGGGLVQAGGSLRLSCAASGSEFTGYPMGWFRQAPGKEREFVAGSVGIGGSTNYADSVKGRFTISRDNAKNTVYLQMNSLKPEDTAVYYCAADKDYYKPYSRYRTVIRYETWGQGTQVTVSS
notes: also called CD22_D04; not shown: human IgG1 Fc domain
B4: PROT810 (D04-AM-D11) VHH-Fc fusion protein (Fc fusion)
chain: B3 chain with V112A, E116D
notes: I took that entry to be D04-AM-D11 on the strength of the name; also called DO4-D11-CD22 VHH; not shown: human IgG1 Fc domain
B5: PROT739 (A01) VHH-Fc fusion protein (Fc fusion)
chain: EVQLLESGGGLVQPGGSLRLSCAASGLTSYSYAMGWYRQAPGKEREFVSAISSGGSAYYADSVKGRFTISRDNSKNTLYLQMNSLRAEDTAVYYCAVGPYYGFRAVTEADYWGQGTQVTVSS
notes: VHH fused to the human IgG1 Fc domain; not shown: human IgG1 Fc domain
B6: PROT740 (E04) VHH-Fc fusion protein (Fc fusion)
chain: EVQLLESGGGLVQPGGSLRLSCAASGFTSSSYVMGWYRQAPGKEREFVSSISTGGDAYYADSVKGRFTISRDNSKNTLYLQMNSLRAEDTAVYYCAADVWYYHGGAYDYWGQGTQVTVSS
notes: as for B5

How the values were obtained:
[1] = molecular target: T1, CD22 expressed on the cell surface …; assay: cell-based or functional assay
[2] = molecular target: T2, monomeric CD22 (Acro Biosystems); assay: BLI (ForteBio Octet Red), VHH-Fc captured on anti-human IgG Fc sensor, monomeric CD22 at 250 nM
Method: (§1) VHH-Fc fusion proteins were assessed for affinity against monomeric CD22 (Acro Biosystems) using the ForteBio Octet Red BLI instrument. VHH-Fc proteins were captured onto an anti-human IgG Fc sensor at 50 nM. Sensor tips were quenched with human IgG Fc protein at 100 nM, then CD22 antigen was added at 250 nM to assess binding kinetics. Association was examined for 600 seconds and dissociation was examined for 600 seconds, allowing for calculation of Kon, Kdis and KD.

[3] = molecular target: T1, CD22 expressed on the cell surface …; assay: flow cytometry on Raji cells, serially diluted VHH-Fc, detection with PE anti-human IgG Fc, % positive cells
Method: (§2) VHH-Fc proteins were tested for binding to CD22 expressed on the cell surface. VHH-Fc proteins were serially diluted and added to Raji cells and incubated at 4 C for 30 minutes. Cells were washed once in BD staining buffer, BSA (BD Pharmingen), then PE-labeled anti-human IgG Fc (Jackson Immnoresearch) was added to detect VHH-Fc cell binding and incubated at 4 C for 30 minutes. Cells were washed once, then resuspended in staining buffer with 0.1% pluronic acid and run through a flow cytometer to detect the fluorescent labeling of the VHH-Fc cells.

[4] = molecular target: T2, monomeric CD22 (Acro Biosystems); assay: protein affinity of VHH-IgG1 Fc fusions (summary sentence, method not named there); before affinity maturation
Method: as §1

[5] = molecular target: T2, monomeric CD22 (Acro Biosystems); assay: BLI affinity assessment of VHH-Fc fusions
Method: as §1
(§3) The D04 clone was affinity matured by scanning mutagenesis of the CDRs and phage display selections for higher affinity clones. Variants were isolated and expressed as VHH-Fc fusions for affinity assessment.

[6] = molecular target: T2, monomeric CD22 (Acro Biosystems); assay: protein affinity of VHH-IgG1 Fc fusions (summary sentence, method not named there); after affinity maturation of CDR3
Method: as §1, §3

[7] = molecular target: T1, CD22 expressed on the cell surface …; assay: flow cytometry on Raji cells, PE-labeled anti-human IgG Fc detection
Method: FIGS. 1A-C show results of VHH-Fc fusion proteins that were examined by flow cytometry for CD22 cellular binding in Raji cells. […] No binding was seen to Raji CD22 knock-out cells. B) PROT265 and PROT810 (an affinity matured variant of PROT265) bind to Raji cells, with PROT810 showing improved binding relative to PROT265.
as §2

Binder | Raji cell killing by CAR-T cells (flow cytometry, 48 hours) [1] [%] | Kd [2] [nM] | koff [2] [s⁻¹] | kon [2] [M⁻¹ s⁻¹] | EC50 (read off the curve) [3] [nM] | Kd [4] [nM] | fold improvement of affinity over the D04 clone [5] [fold] | Kd [6] [nM] | EC50 [7] [nM]
B1 | 40 | – | – | – | – | – | – | – | –
B2 | < 20 | – | – | – | – | – | – | – | –
B3 | – | 31.9 | 0.00257 | 80800 | ~1 | 30 | – | – | –
B4 | – | 6.97 | 0.000657 | 94300 | – | – | 5 | 5 | –
B5 | – | 96.1 | 0.0102 | 106000 | – | – | – | – | ~2
B6 | – | 23.3 | 0.000536 | 23000 | – | – | – | – | ~2
